US20070172423A1, “Composition and method for modulating vasculogenesis for angiogenesis” (priority 1998, published 2007)

Assays:
[1] = tested on: HMVEC; assay: HMVEC proliferation assay; format: cell-based, human; conditions: 50 ng/ml, 7 days
Experimental: Cell migration assays were performed on growth arrested confluent HMVEC, BAEC or hSMC cells. Cell monolayers were wounded with a rubber policeman and washed with serum-free medium. Dishes were then incubated for 20 hours in serum-free medium containing VEGF165, PDGF-AA, (R&D Systems, Minneapolis USA) or PDGF-CC. Each assay included two dishes per condition and was repeated three times independently. Cells were photographed at 40× magnification, and migration percentage corresponding to the ratio between area of the cells and the total area of the wound (Biocom visiol@b 2000 version 4.52, San Diego). For HMVEC proliferation assay, cells were seeded in 96-well plates (5 wells per condition), and incubated with VEGF, PDGF-AA, or PDGF-CC (50 ng/ml) after serum starvation. After 7 days, viable cells were counted using the cell Titer-glo luminescent cell viability assay. For NIH-3T3 and hSMC proliferation assay, cells cultured in 96-well plates were serum-starved overnight, followed by treatment with growth factors at different concentrations. Two days later, cell numbers were counted and proliferation percentage calculated, using cells cultured in medium containing 10% serum as control. Aortic ring assay was performed as described 51. […] Aortic rings were analysed at day 9 of culturing. […]

[2] = tested on: PDGFR-α; assay: PDGFR-α expression in gastrocnemius muscle by RNAse protection analysis; format: in vivo, mouse; conditions: 4.5 μg daily, day 2 after ligation, compared to vehicle
Experimental: RNase protection analysis (RPA) was performed according to the manufacturer's protocol (Ambion) to investigate gene expression at mRNA level. Riboprobes were prepared using RNA polymerase (Promega) and ^32P-UTP (Amersham). Mouse β-actin cDNA (250 bp, Ambion) was used as an internal control. For Western blot assay, subconfluent cells were rinsed with cold PBS supplemented with 5 µg/ml of antiprotease cocktail, lysed in RIPA buffer and analyzed on 10% acrylamide SDS PAGE in reducing condition. […] The precipitants were analysed on SDS-PAGE, and immunoblotted using a monoclonal anti-phosphotyrosine antibody (Santa Cruz).
To further verify the angio/arteriogenic activity of PDGF-CC in vivo, the effect of PDGF-CC in an established mouse model of hind limb ischemia is investigated (Luttun et al., Nat Med, 2002 1:1). PDGFR-α expression was quantified by RNAse protection analysis in the gastrocnemius muscle, which becomes highly ischemic after ligation of the femoral artery (Deindl et al., Circ Res, 2001 89:779-86; Couffinhal et al., American Journal of Pathology, 1998 152:1667-1679). […] Revascularization of the ischemic gastrocnemius muscle, which only occurred in those regions where regenerating muscle replaced the necrotic avascular muscle, was scored after continuous delivery, by osmotic minipump, of 4.5 μg PDGF-CC per day for one week after femoral artery ligation. […]

[3] = tested on: ischemic myocardium; assay: Myocardial ischemia mouse model, Example 18
Experimental: Acute myocardial ischemia and hind limb ischemia mouse models were performed as previously described (Luttun et al., Nat Med, 2002 1:1; Heymans et al., Nat Med, 1999 5:1135-42). Subcutaneously implanted osmotic minipumps (Alzet, type 2001) were used for continuous protein delivery for 7 days. Human PDGF-CC core domain protein was produced as described (Li et al., Nat Cell Biol, 2000 2:302-309). Fluorescent or color dye microspheres (yellow, 15 μm, Molecular Probes) were administered after maximal vasodilatation (sodium nitroprusside, 50 ng/ml, Sigma) for blood flow measurement, and flow was calculated as described (Carmeliet et al., Nat Med, 1999 5:495-502). For histology, the hearts were harvested seven days after LAD ligation, and sectioned longitudinally (6 μm). Infarcted areas were morphologically inspected after immunohistochemistry staining using thrombomodulin (rabbit anti-TM, for all vessels) and smooth muscle alpha-actin (mouse anti-SMA, for mature SMC covered vessels, Dako), and vessel densities calculated. Gastrocnemius muscles after femoral artery ligation were sectioned transversally and analysed after H&E or immunostainings with the EC marker CD31 (PECAM, rat anti-CD31, Pharmingen). Vessel densities and tissue necrosis/regeneration in the gastrocnemius muscle were analyzed morphometrically using the KS300 image analysis soft ware (Zeiss). Remodeling of collateral vessels in the upper hindlimb after femoral ligation was quantified as reported (Luttun et al., Nat Med, 2002 1:1).
A previously established mouse model of myocardial ischemia was used to assess whether PDGF-CC is capable of stimulating the revascularization of ischemic myocardium. After coronary ligation, new vessels revascularize the ischemic core from its surrounding border region. For PDGF-CC to stimulate new vessel growth, its receptor, PDGFR-α, should be expressed in the heart. […] To examine whether PDGF-CC could stimulate revascularization of the ischemic myocardium, we delivered, using a minipump, continuously over one week after coronary ligation, recombinant human PDGF-CC core domain protein, which is known to bind and activate PDGFR-α (Li et al., Nat Cell Biol, 2000 2:302-309). […] After seven days, angiogenesis was quantified by counting the number of endothelial cell (EC)-lined vessels in the ischemic area after immunolabeling with thrombomodulin (TM). Vessel maturation (arteriogenesis) was evaluated by counting the arterioles, immunoreactive for smooth muscle cell α-actin (SMA).

[4] = 4.5 μg/day, minipump, seven days

B1: PDGF-CC: recombinant human PDGF-CC core domain homodimer, residues 230-345 of full-length PDGF-C (SEQ ID NO:40), produced in baculovirus infected insect cells (protein)
chain: GRKSRVVDLNLLTEEVRLYSCTPRNFSVSIREELKRTDTIFWPGCLLVKRCGGNCACCLHNCNECQCVPSKVTKKYHEVLQLRPKTGVRGLHKSLTDVALEHHEECDCVCRGSTGG
modifications: homodimer; PDGF-C core domain
B1 was tested, and the EC proliferation [1] was “no effect”, the “PDGFR-α expression in gastrocnemius muscle” value [2] was “almost completely restored” and the TM-positive vessel density ([3]; 1.5 μg/day, minipump, seven days) was “minimally affected”. The SMA positive vessels ([3]; 1.5 μg/day, minipump, seven days, ischemic area) was 53.1±3.7 vessels/mm^2, the “increase in number of SMA-positive arterioles” value ([3]; 1.5 μg/day, minipump, seven days, vs saline) was 1.36 fold and the “angiogenesis (TM-positive vessels in ischemic area)” value [3, 4] was “significantly stimulated”. For the same molecule, the “arteriogenesis (SMA-positive arterioles in ischemic area)” value [3, 4] was “significantly stimulated”, the “blood flow (perfusion of the ischemic myocardial region)” value ([3]; 4.5 μg/day, n=7-9) was 2.2 ± 0.2 mL/min/g and the “hemorrhage, edema or fibrosis in treated hearts” value ([3]; minipump, seven days) was “No signs of hemorrhage, edema or fibrosis”. The “tolerability (weight loss, inactivity)” value ([3]; minipump, seven days) was “no signs of toxicity” and the “vessel density in other organs” value ([3]; non-ischemic organs) was “no differences”.
